Reference: patent US20220168396A1, “MULTI-RECEPTOR AGONIST AND MEDICAL USE THEREOF” (published 2022)
Square brackets hold non-standard residues; d marks the D form. Ends that are not written are not given here. Aib = CC(C)(N)C(=O)O

T1: human glucose-dependent insulinotropic peptide receptor (human, UniProt P48546)
T1 sequence: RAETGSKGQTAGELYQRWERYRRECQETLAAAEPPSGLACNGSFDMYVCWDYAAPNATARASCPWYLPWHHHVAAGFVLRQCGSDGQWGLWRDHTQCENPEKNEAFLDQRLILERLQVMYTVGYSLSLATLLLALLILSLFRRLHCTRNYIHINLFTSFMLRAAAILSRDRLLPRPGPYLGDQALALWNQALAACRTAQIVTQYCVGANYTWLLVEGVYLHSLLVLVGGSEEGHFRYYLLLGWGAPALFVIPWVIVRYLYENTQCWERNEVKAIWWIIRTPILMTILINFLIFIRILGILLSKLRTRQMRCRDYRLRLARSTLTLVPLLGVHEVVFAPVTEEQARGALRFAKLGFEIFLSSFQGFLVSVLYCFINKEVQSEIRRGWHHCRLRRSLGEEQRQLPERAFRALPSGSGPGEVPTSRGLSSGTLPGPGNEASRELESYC

B1: Compound No. 68 (peptide)
peptide: Y[Aib]EGTFTSDVSIYLEKIAAQEFVNWLLAGGPSSGAPPPS-NH2
modifications: N-terminus assumed
SMILES: CC[C@H](C)[C@H](NC(=O)[C@H](CCCCN)NC(=O)[C@H](CCC(=O)O)NC(=O)[C@H](CC(C)C)NC(=O)[C@H](Cc1ccc(O)cc1)NC(=O)[C@@H](NC(=O)[C@H](CO)NC(=O)[C@@H](NC(=O)[C@H](CC(=O)O)NC(=O)[C@H](CO)NC(=O)[C@@H](NC(=O)[C@H](Cc1ccccc1)NC(=O)[C@@H](NC(=O)CNC(=O)[C@H](CCC(=O)O)NC(=O)C(C)(C)NC(=O)[C@@H](N)Cc1ccc(O)cc1)[C@@H](C)O)[C@@H](C)O)C(C)C)[C@@H](C)CC)C(=O)N[C@@H](C)C(=O)N[C@@H](C)C(=O)N[C@@H](CCC(N)=O)C(=O)N[C@@H](CCC(=O)O)C(=O)N[C@@H](Cc1ccccc1)C(=O)N[C@H](C(=O)N[C@@H](CC(N)=O)C(=O)N[C@@H](Cc1c[nH]c2ccccc12)C(=O)N[C@@H](CC(C)C)C(=O)N[C@@H](CC(C)C)C(=O)N[C@@H](C)C(=O)NCC(=O)NCC(=O)N1CCC[C@H]1C(=O)N[C@@H](CO)C(=O)N[C@@H](CO)C(=O)NCC(=O)N[C@@H](C)C(=O)N1CCC[C@H]1C(=O)N1CCC[C@H]1C(=O)N1CCC[C@H]1C(=O)N[C@@H](CO)C(N)=O)C(C)C
B2: Compound No. 3 (peptide)
peptide: Y[Aib]EGTFTSDVSSYLEEEHQKEFIAWLVRGGPSSGAPPPSK-NH2
modifications: N-terminus assumed
SMILES: CC[C@H](C)[C@H](NC(=O)[C@H](Cc1ccccc1)NC(=O)[C@H](CCC(=O)O)NC(=O)[C@H](CCCCN)NC(=O)[C@H](CCC(N)=O)NC(=O)[C@H](Cc1c[nH]cn1)NC(=O)[C@H](CCC(=O)O)NC(=O)[C@H](CCC(=O)O)NC(=O)[C@H](CCC(=O)O)NC(=O)[C@H](CC(C)C)NC(=O)[C@H](Cc1ccc(O)cc1)NC(=O)[C@H](CO)NC(=O)[C@H](CO)NC(=O)[C@@H](NC(=O)[C@H](CC(=O)O)NC(=O)[C@H](CO)NC(=O)[C@@H](NC(=O)[C@H](Cc1ccccc1)NC(=O)[C@@H](NC(=O)CNC(=O)[C@H](CCC(=O)O)NC(=O)C(C)(C)NC(=O)[C@@H](N)Cc1ccc(O)cc1)[C@@H](C)O)[C@@H](C)O)C(C)C)C(=O)N[C@@H](C)C(=O)N[C@@H](Cc1c[nH]c2ccccc12)C(=O)N[C@@H](CC(C)C)C(=O)N[C@H](C(=O)N[C@@H](CCCNC(=N)N)C(=O)NCC(=O)NCC(=O)N1CCC[C@H]1C(=O)N[C@@H](CO)C(=O)N[C@@H](CO)C(=O)NCC(=O)N[C@@H](C)C(=O)N1CCC[C@H]1C(=O)N1CCC[C@H]1C(=O)N1CCC[C@H]1C(=O)N[C@@H](CO)C(=O)N[C@@H](CCCCN)C(N)=O)C(C)C
B3: Compound No. 21 (peptide)
peptide: Y[Aib]EGTFTSDYSIYLDKIAAQEFVQWLLAGGPSSGAPPPSK-NH2
modifications: N-terminus assumed
SMILES: CC[C@H](C)[C@H](NC(=O)[C@H](CCCCN)NC(=O)[C@H](CC(=O)O)NC(=O)[C@H](CC(C)C)NC(=O)[C@H](Cc1ccc(O)cc1)NC(=O)[C@@H](NC(=O)[C@H](CO)NC(=O)[C@H](Cc1ccc(O)cc1)NC(=O)[C@H](CC(=O)O)NC(=O)[C@H](CO)NC(=O)[C@@H](NC(=O)[C@H](Cc1ccccc1)NC(=O)[C@@H](NC(=O)CNC(=O)[C@H](CCC(=O)O)NC(=O)C(C)(C)NC(=O)[C@@H](N)Cc1ccc(O)cc1)[C@@H](C)O)[C@@H](C)O)[C@@H](C)CC)C(=O)N[C@@H](C)C(=O)N[C@@H](C)C(=O)N[C@@H](CCC(N)=O)C(=O)N[C@@H](CCC(=O)O)C(=O)N[C@@H](Cc1ccccc1)C(=O)N[C@H](C(=O)N[C@@H](CCC(N)=O)C(=O)N[C@@H](Cc1c[nH]c2ccccc12)C(=O)N[C@@H](CC(C)C)C(=O)N[C@@H](CC(C)C)C(=O)N[C@@H](C)C(=O)NCC(=O)NCC(=O)N1CCC[C@H]1C(=O)N[C@@H](CO)C(=O)N[C@@H](CO)C(=O)NCC(=O)N[C@@H](C)C(=O)N1CCC[C@H]1C(=O)N1CCC[C@H]1C(=O)N1CCC[C@H]1C(=O)N[C@@H](CO)C(=O)N[C@@H](CCCCN)C(N)=O)C(C)C
B4: Compound No. 7 (peptide)
peptide: Y[Aib]EGTFTSDVSIYLEKEAAKEFVNWLLAGGPSSGAPPPSK-NH2
modifications: N-terminus assumed
SMILES: CC[C@H](C)[C@H](NC(=O)[C@H](CO)NC(=O)[C@@H](NC(=O)[C@H](CC(=O)O)NC(=O)[C@H](CO)NC(=O)[C@@H](NC(=O)[C@H](Cc1ccccc1)NC(=O)[C@@H](NC(=O)CNC(=O)[C@H](CCC(=O)O)NC(=O)C(C)(C)NC(=O)[C@@H](N)Cc1ccc(O)cc1)[C@@H](C)O)[C@@H](C)O)C(C)C)C(=O)N[C@@H](Cc1ccc(O)cc1)C(=O)N[C@@H](CC(C)C)C(=O)N[C@@H](CCC(=O)O)C(=O)N[C@@H](CCCCN)C(=O)N[C@@H](CCC(=O)O)C(=O)N[C@@H](C)C(=O)N[C@@H](C)C(=O)N[C@@H](CCCCN)C(=O)N[C@@H](CCC(=O)O)C(=O)N[C@@H](Cc1ccccc1)C(=O)N[C@H](C(=O)N[C@@H](CC(N)=O)C(=O)N[C@@H](Cc1c[nH]c2ccccc12)C(=O)N[C@@H](CC(C)C)C(=O)N[C@@H](CC(C)C)C(=O)N[C@@H](C)C(=O)NCC(=O)NCC(=O)N1CCC[C@H]1C(=O)N[C@@H](CO)C(=O)N[C@@H](CO)C(=O)NCC(=O)N[C@@H](C)C(=O)N1CCC[C@H]1C(=O)N1CCC[C@H]1C(=O)N1CCC[C@H]1C(=O)N[C@@H](CO)C(=O)N[C@@H](CCCCN)C(N)=O)C(C)C
B5: Compound No. 67 (peptide)
peptide: Y[Aib]EGTFTSDYSIYLEKEAAKEFIAWLLAGGPSSGAPPPS-NH2
modifications: N-terminus assumed
SMILES: CC[C@H](C)[C@H](NC(=O)[C@H](Cc1ccccc1)NC(=O)[C@H](CCC(=O)O)NC(=O)[C@H](CCCCN)NC(=O)[C@H](C)NC(=O)[C@H](C)NC(=O)[C@H](CCC(=O)O)NC(=O)[C@H](CCCCN)NC(=O)[C@H](CCC(=O)O)NC(=O)[C@H](CC(C)C)NC(=O)[C@H](Cc1ccc(O)cc1)NC(=O)[C@@H](NC(=O)[C@H](CO)NC(=O)[C@H](Cc1ccc(O)cc1)NC(=O)[C@H](CC(=O)O)NC(=O)[C@H](CO)NC(=O)[C@@H](NC(=O)[C@H](Cc1ccccc1)NC(=O)[C@@H](NC(=O)CNC(=O)[C@H](CCC(=O)O)NC(=O)C(C)(C)NC(=O)[C@@H](N)Cc1ccc(O)cc1)[C@@H](C)O)[C@@H](C)O)[C@@H](C)CC)C(=O)N[C@@H](C)C(=O)N[C@@H](Cc1c[nH]c2ccccc12)C(=O)N[C@@H](CC(C)C)C(=O)N[C@@H](CC(C)C)C(=O)N[C@@H](C)C(=O)NCC(=O)NCC(=O)N1CCC[C@H]1C(=O)N[C@@H](CO)C(=O)N[C@@H](CO)C(=O)NCC(=O)N[C@@H](C)C(=O)N1CCC[C@H]1C(=O)N1CCC[C@H]1C(=O)N1CCC[C@H]1C(=O)N[C@@H](CO)C(N)=O
B6: Compound No. 79 (peptide)
peptide: Y[Aib]EGTFTSDYSIYLEKIAAQEFVQWLIAGGPSSGAPPPS-NH2
modifications: N-terminus assumed
SMILES: CC[C@H](C)[C@H](NC(=O)[C@H](CCCCN)NC(=O)[C@H](CCC(=O)O)NC(=O)[C@H](CC(C)C)NC(=O)[C@H](Cc1ccc(O)cc1)NC(=O)[C@@H](NC(=O)[C@H](CO)NC(=O)[C@H](Cc1ccc(O)cc1)NC(=O)[C@H](CC(=O)O)NC(=O)[C@H](CO)NC(=O)[C@@H](NC(=O)[C@H](Cc1ccccc1)NC(=O)[C@@H](NC(=O)CNC(=O)[C@H](CCC(=O)O)NC(=O)C(C)(C)NC(=O)[C@@H](N)Cc1ccc(O)cc1)[C@@H](C)O)[C@@H](C)O)[C@@H](C)CC)C(=O)N[C@@H](C)C(=O)N[C@@H](C)C(=O)N[C@@H](CCC(N)=O)C(=O)N[C@@H](CCC(=O)O)C(=O)N[C@@H](Cc1ccccc1)C(=O)N[C@H](C(=O)N[C@@H](CCC(N)=O)C(=O)N[C@@H](Cc1c[nH]c2ccccc12)C(=O)N[C@@H](CC(C)C)C(=O)N[C@H](C(=O)N[C@@H](C)C(=O)NCC(=O)NCC(=O)N1CCC[C@H]1C(=O)N[C@@H](CO)C(=O)N[C@@H](CO)C(=O)NCC(=O)N[C@@H](C)C(=O)N1CCC[C@H]1C(=O)N1CCC[C@H]1C(=O)N1CCC[C@H]1C(=O)N[C@@H](CO)C(N)=O)[C@@H](C)CC)C(C)C
B7: Compound No. 73 (peptide)
peptide: Y[Aib]EGTFTSDYSIYLEEEAAQEFVNWLLAGGPSSGAPPPS-NH2
modifications: N-terminus assumed
SMILES: CC[C@H](C)[C@H](NC(=O)[C@H](CO)NC(=O)[C@H](Cc1ccc(O)cc1)NC(=O)[C@H](CC(=O)O)NC(=O)[C@H](CO)NC(=O)[C@@H](NC(=O)[C@H](Cc1ccccc1)NC(=O)[C@@H](NC(=O)CNC(=O)[C@H](CCC(=O)O)NC(=O)C(C)(C)NC(=O)[C@@H](N)Cc1ccc(O)cc1)[C@@H](C)O)[C@@H](C)O)C(=O)N[C@@H](Cc1ccc(O)cc1)C(=O)N[C@@H](CC(C)C)C(=O)N[C@@H](CCC(=O)O)C(=O)N[C@@H](CCC(=O)O)C(=O)N[C@@H](CCC(=O)O)C(=O)N[C@@H](C)C(=O)N[C@@H](C)C(=O)N[C@@H](CCC(N)=O)C(=O)N[C@@H](CCC(=O)O)C(=O)N[C@@H](Cc1ccccc1)C(=O)N[C@H](C(=O)N[C@@H](CC(N)=O)C(=O)N[C@@H](Cc1c[nH]c2ccccc12)C(=O)N[C@@H](CC(C)C)C(=O)N[C@@H](CC(C)C)C(=O)N[C@@H](C)C(=O)NCC(=O)NCC(=O)N1CCC[C@H]1C(=O)N[C@@H](CO)C(=O)N[C@@H](CO)C(=O)NCC(=O)N[C@@H](C)C(=O)N1CCC[C@H]1C(=O)N1CCC[C@H]1C(=O)N1CCC[C@H]1C(=O)N[C@@H](CO)C(N)=O)C(C)C

How the values were obtained:
[1] = target: T1, human glucose-dependent insulinotropic …; experiment: cell-based or functional assay
[2] = target: human glucagon-like peptide-1 receptor (human, UniProt P43220); experiment: cell-based or functional assay

Binder	Activity for human GIPR (EC50 nM), cAMP HTRF [1]	Activity for human GLP-1R (EC50 nM), cAMP HTRF [2]
B1	0.047 nM	
B2	0.91 nM	0.578 nM
B3		0.043 nM
B4		0.016 nM
B5	0.017 nM	
B6		0.012 nM
B7		0.069 nM
